Patent US8563520B2, “Treatment of ocular disease with inhibitors of alpha2 macroglobulin protein” (McGill University, priority 2005, dated 2013)
Read-outs that look alike come from different tables or passages of the source.

Tested on: Rat Retina
Experimental: The following experiment was conducted in order to assess changes in gene expression induced in the retina after intraocular injection of α2 macroglobulin protein. 2 μg of α2 macroglobulin protein was intraocularly injected into the right eye of rats (n=3) and the left eye was used as a control. One rat was tested at Day 3, one rat was tested at Day 7 and one rat was tested at Day 14. Retinas were isolated and mRNA was collected. Samples from each of the rats were studied by gene microassays. Retinas were carefully dissected out to insure that only retinal mRNAs were prepared for gene microarray studies. Samples were obtained from control eyes.
Total RNA was isolated from retinal tissue using TRIZOL® (Life Technologies). RNA was then further purified using the RNAEASY® (QIAGEN®). The integrity of the RNA samples was assessed by running aliquots on RNA 6000 Nano LabChip (Agilent) using the 2100 bioanalyzer (Agilent).
Probe synthesis, hybridization and scanning were done according to Affymetrix protocol, as a service at the McGill University and Genome Quebec Innovation Centre. For the experiments shown, Rat U34 Genome Arrays (8,700 genes, Affymetrix) were used. Briefly, RNA samples were first converted to double stranded cDNA (T7-(dT)24 primer (Genset)). Then the cDNAs were purified and used to generate the biotinylated cRNA probes (Bioarray High Yield RNA transcript labeling kit (Enzo diagnostics)). An aliquot of the purified cRNA was analyzed on RNA 6000 Nano LabChip (Agilent) to verify the integrity and size distribution. Immediately after hybridization the chip was placed in the Affymetrix GeneChip Fluidics Station 400 (Affymetrix). In total, 10 low-stringency washes (63 SSPE, 0.01% Tween-20, 0.005% Antifoam) and 4 high-stringency washes (100 mM MES, 0.1 M NaCl, 0.01% Tween-20, 50 C) were performed (all reagents from Sigma). The array was then incubated with SAPE® (streptavidin/phycoerythrin stain, Molecular Probes), followed by 10 low stringency washes. The array was incubated with biotinylated anti-streptavidin antibody (Vector Laboratories) and washed again with 15 low stringency washes. Specifically bound probe was detected by placing the array in the Agilent GeneArray scanner 2500 (Affymetrix). The scanned images were analyzed using the Microarray Analysis Suite version 5.0 (Affymetrix).
The fold change was analyzed by […] data for the control eye from the data on the eye injected with α2 macroglobulin. A fold change of 2 or greater indicates upregulation. A fold of 0.5 to 2 indicates no change. A fold change of 0.5 or less indicates downregulation.

[1] = gene complexin 2 (1368584_a_at)
[2] = gene crystallin, beta A2 (1388385_at)
[3] = gene crystallin, beta B1 (1369985_at)
[4] = gene crystallin, beta B2 (1367684_at)
[5] = gene crystallin, beta B3 (1367990_at)
[6] = gene crystallin, gamma N (predicted) (1384241_at)
[7] = gene death effector domain-containing (1369003_at)
[8] = gene fibrinogen-like 2 (1392894_at)
[9] = gene forkhead box E3 (1370797_at)
[10] = gene glycoprotein 2 (zymogen granule membrane) (1386933_at)
[11] = gene glycoprotein (transmembrane) nmb (1368187_at)
[12] = gene guanylate nucleotide binding protein 2 (1368332_at)
[13] = gene interferon induced transmembrane protein 1 (predicted) (1372013_at)
[14] = gene lens intrinsic membrane protein 2 (1368493_at)
[15] = gene membrane metallo endopeptidase (1370072_at)
[16] = gene membrane-spanning 4-domains, subfamily A, member 6B (1390510_at)
[17] = gene procollagen, type III, alpha 1 (1370959_at)
[18] = gene procollagen, type IV, alpha 1 (1372439_at)
[19] = gene procollagen, type IV, alpha 1 (1373245_at)
[20] = gene serine (or cysteine) peptidase inhibitor, clade G, member 1 (1372254_at)
[21] = gene similar to Beta crystallin S (Gamma crystallin S) (1388435_at)
[22] = gene similar to FRBZ1 protein (FRBZ1) (predicted) (1398217_at)
[23] = gene similar to Phakinin (Beaded filament structural protein 2) (1383812_at)
[24] = gene similar to RCK (predicted) (1389868_at)
[25] = gene similar to RIKEN cDNA 1300010M03 (predicted) (1376087_at)
[26] = gene similar to RIKEN cDNA 1500009M05 (predicted) (1382193_at)
[27] = gene similar to RIKEN cDNA 4930555G01 (predicted) (1391152_at)
[28] = gene similar to RNA-binding protein Musashi2-S (predicted) (1390813_at)
[29] = gene similar to keratin complex 2, basic, gene 6a (1373349_at)
[30] = gene similar to mKIAA1450 protein (predicted) (1391315_at)
[31] = gene similar to serine (or cysteine) proteinase inhibitor (1388746_at)
[32] = gene solute carrier family 6 (neurotransmitter transporter, GABA) (1369715_at)
[33] = gene solute carrier family 6 (neurotransmitter transporter, taurine) (1368778_at)
[34] = gene spectrin alpha 1 (1386212_at)

B1: α2m: α2 macroglobulin protein injected intraocularly into normal rat eyes (protein, UniProt P06238 28-1472, looked up)
Alpha-2-macroglobulin: SAPQKPIYMVMVPSLLHAGTPEKACFLFSHLNETVAVRVSLESVRGNQSLFTDLVVDKDLFHCTSFTVPQSSSDEVMFFTVQVKGATHEFRRRSTVLVKKKESLVFAQTDKPIYKPGQTVRFRVVSLDESFHPLNELIPLLYIQDPKNNRIAQWQNFNLEGGLKQLSFPLSSEPTQGSYKVVIRTESGRTVEHPFSVEEFVLPKFEVRVTVPETITILEEEMNVSVCGIYTYGKPVPGRVTVNICRKYSNPSNCFGEESVAFCEKLSQQLDGRGCFSQLVKTKSFQLKRQEYEMQLDVHAKIQEEGTGVEETGKGLTKITRTITKLSFVNVDSHFRQGIPFVGQVLLVDGRGTPIPYETIFIGADEANLYINTTTDKHGLARFSINTDDIMGTSLTVRAKYKDSNACYGFRWLTEENVEAWHTAYAVFSPSRSFLHLESLPDKLRCDQTLEVQAHYILNGEAMQELKELVFYYLMMAKGGIVRAGTHVLPLKQGQMRGHFSILISMETDLAPVARLVLYAILPNGEVVGDTAKYEIENCLANKVDLVFRPNSGLPATRALLSVMASPQSLCGLRAVDQSVLLMKPETELSASLIYDLLPVKDLTGFPQGADQREEDTNGCVKQNDTYINGILYSPVQNTNEEDMYGFLKDMGLKVFTNSNIRKPKVCERLRDNKGIPAAYHLVSQSHMDAFLESSESPTETRRSYFPETWIWDLVVVDSAGVAEVEVTVPDTITEWKAGAFCLSNDTGLGLSPVVQFQAFQPFFVELTMPYSVIRGEAFTLKATVLNYLPTCIRVAVQLEASPDFLAAPEEKEQRSHCICMNQRHTASWAVIPKSLGNVNFTVSAEALNSKELCGNEVPVVPEQGKKDTIIKSLLVEPEGLENEVTFNSLLCPMGAEVSELIALKLPSDVVEESARASVTVLGDILGSAMQNTQDLLKMPYGCGEQNMVLFAPNIYVLDYLNETQQLTQEIKTKAIAYLNTGYQRQLNYKHRDGSYSTFGDKPGRNHANTWLTAFVLKSFAQARKYIFIDEVHITQALLWLSQQQKDNGCFRSSGSLLNNAMKGGVEDEVTLSAYITIALLEMSLPVTHPVVRNALFCLDTAWKSARGGAGGSHVYTKALLAYAFALAGNQDTKKEILKSLDEEAVKEEDSVHWTRPQKPSVSVALWYQPQAPSAEVEMTAYVLLAYLTTEPAPTQEDLTAAMLIVKWLTKQQNSHGGFSSTQDTVVALHALSKYGSATFTRAKKAAQVTIHSSGTFSTKFQVNNNNQLLLQRVTLPTVPGDYTVKVTGEGCVYLQTSLKYSVLPREEEFPFTVVVQTLPGTCEDPKAHTSFQISLNISYTGSRSESNMAIADVKMVSGFIPLKPTVKMLERSVHVSRTEVSNNHVLIYLDKVSNQTVNLSFTVQQDIPIRDLKPAVVKVYDYYEKDEFAVAKYSAPCSTDYGNA
Gene complement factor B (1389470_at)
  Fold Change (α2m vs normal) Day 7: 3.3
[1]
  Fold Change (α2m vs normal) Day 3: 0.5
  Fold Change (α2m vs normal) Day 7: 0.2
[2]
  Fold Change (α2m vs normal) Day 3: 0.5
  Fold Change (α2m vs normal) Day 7: 3.6
  Fold Change (α2m vs normal) Day 14: 2.0
[3]
  Fold Change (α2m vs normal) Day 3: 0.5
  Fold Change (α2m vs normal) Day 7: 3.4
  Fold Change (α2m vs normal) Day 14: 2.0
[4]
  Fold Change (α2m vs normal) Day 3: 0.4
  Fold Change (α2m vs normal) Day 7: 3.7
  Fold Change (α2m vs normal) Day 14: 2.2
[5]
  Fold Change (α2m vs normal) Day 3: 0.4
  Fold Change (α2m vs normal) Day 7: 4.2
  Fold Change (α2m vs normal) Day 14: 2.0
[6]
  Fold Change (α2m vs normal) Day 3: 0.5
  Fold Change (α2m vs normal) Day 7: 3.9
[7]
  Fold Change (α2m vs normal) Day 3: 0.5
  Fold Change (α2m vs normal) Day 7: 0.4
Gene decorin (1370956_at)
  Fold Change (α2m vs normal) Day 3: 3.7
  Fold Change (α2m vs normal) Day 7: 12.6
[8]
  Fold Change (α2m vs normal) Day 3: 2.1
  Fold Change (α2m vs normal) Day 7: 2.1
[9]
  Fold Change (α2m vs normal) Day 3: 0.4
  Fold Change (α2m vs normal) Day 7: 2.9
  Fold Change (α2m vs normal) Day 14: 2.2
[10]
  Fold Change (α2m vs normal) Day 3: 0.5
  Fold Change (α2m vs normal) Day 7: 2.1
[11]
  Fold Change (α2m vs normal) Day 3: 3.9
  Fold Change (α2m vs normal) Day 7: 7.4
[12]
  Fold Change (α2m vs normal) Day 3: 2.2
  Fold Change (α2m vs normal) Day 7: 2.1
[13]
  Fold Change (α2m vs normal) Day 3: 5.8
  Fold Change (α2m vs normal) Day 7: 4.2
[14]
  Fold Change (α2m vs normal) Day 3: 0.5
  Fold Change (α2m vs normal) Day 7: 2.5
Gene lumican (1367749_at)
  Fold Change (α2m vs normal) Day 3: 6.1
  Fold Change (α2m vs normal) Day 7: 4.1
  Fold Change (α2m vs normal) Day 14: 0.4
Gene lysozyme (1370154_at)
  Fold Change (α2m vs normal) Day 3: 7.8
  Fold Change (α2m vs normal) Day 7: 2.8
[15]
  Fold Change (α2m vs normal) Day 3: 0.5
  Fold Change (α2m vs normal) Day 7: 5.3
  Fold Change (α2m vs normal) Day 14: 2.2
[16]
  Fold Change (α2m vs normal) Day 3: 5.1
  Fold Change (α2m vs normal) Day 7: 2.1
[17]
  Fold Change (α2m vs normal) Day 3: 3.7
  Fold Change (α2m vs normal) Day 7: 3.4
[18]
  Fold Change (α2m vs normal) Day 3: 0.3
  Fold Change (α2m vs normal) Day 7: 17.5
  Fold Change (α2m vs normal) Day 14: 2.4
[19]
  Fold Change (α2m vs normal) Day 3: 0.3
  Fold Change (α2m vs normal) Day 7: 13.2
  Fold Change (α2m vs normal) Day 14: 2.3
[20]
  Fold Change (α2m vs normal) Day 3: 3.0
  Fold Change (α2m vs normal) Day 7: 3.3
[21]
  Fold Change (α2m vs normal) Day 3: 0.5
  Fold Change (α2m vs normal) Day 7: 2.8
  Fold Change (α2m vs normal) Day 14: 2.9
[22]
  Fold Change (α2m vs normal) Day 3: 0.5
  Fold Change (α2m vs normal) Day 7: 0.2
[23]
  Fold Change (α2m vs normal) Day 3: 0.4
  Fold Change (α2m vs normal) Day 7: 2.7
[24]
  Fold Change (α2m vs normal) Day 3: 0.5
  Fold Change (α2m vs normal) Day 7: 0.2
[25]
  Fold Change (α2m vs normal) Day 3: 0.5
  Fold Change (α2m vs normal) Day 7: 0.4
[26]
  Fold Change (α2m vs normal) Day 3: 0.4
  Fold Change (α2m vs normal) Day 7: 0.2
[27]
  Fold Change (α2m vs normal) Day 3: 2.0
  Fold Change (α2m vs normal) Day 7: 5.6
[28]
  Fold Change (α2m vs normal) Day 3: 0.5
  Fold Change (α2m vs normal) Day 7: 0.2
[29]
  Fold Change (α2m vs normal) Day 3: 7.3
  Fold Change (α2m vs normal) Day 7: 0.4
[30]
  Fold Change (α2m vs normal) Day 3: 0.5
  Fold Change (α2m vs normal) Day 7: 0.2
[31]
  Fold Change (α2m vs normal) Day 3: 0.4
  Fold Change (α2m vs normal) Day 7: 2.6
[32]
  Fold Change (α2m vs normal) Day 3: 0.5
  Fold Change (α2m vs normal) Day 7: 0.4
[33]
  Fold Change (α2m vs normal) Day 3: 0.5
  Fold Change (α2m vs normal) Day 7: 0.2
  Fold Change (α2m vs normal) Day 14: 2.3
[34]
  Fold Change (α2m vs normal) Day 3: 0.5
  Fold Change (α2m vs normal) Day 7: 2.1
Gene — (1393766_at, AI112375)
  Fold Change (α2m vs normal) Day 3: 0.4
  Fold Change (α2m vs normal) Day 7: 0.3
  Fold Change (α2m vs normal) Day 14: 3.6
Gene — (1394837_at, BF405797)
  Fold Change (α2m vs normal) Day 3: 0.3
  Fold Change (α2m vs normal) Day 7: 0.2
Gene — (1395129_at, BE107340)
  Fold Change (α2m vs normal) Day 3: 0.5
  Fold Change (α2m vs normal) Day 7: 0.3
